Assay results taken from patent publication US20180155434A1 (UNIVERSITY OF TOYAMA, published 2018).
Changes are numbered by the printed parent chain. Names and notes keep the numbering of the source.

T1: mouse IL-5Rα on Y16 cells (mouse, UniProt P21183 18-415)
T1 construct: whole, on cells; also called IL-5Rα chain; mouse IL-5Rα-expressing cell Y16
T1 sequence (looked up): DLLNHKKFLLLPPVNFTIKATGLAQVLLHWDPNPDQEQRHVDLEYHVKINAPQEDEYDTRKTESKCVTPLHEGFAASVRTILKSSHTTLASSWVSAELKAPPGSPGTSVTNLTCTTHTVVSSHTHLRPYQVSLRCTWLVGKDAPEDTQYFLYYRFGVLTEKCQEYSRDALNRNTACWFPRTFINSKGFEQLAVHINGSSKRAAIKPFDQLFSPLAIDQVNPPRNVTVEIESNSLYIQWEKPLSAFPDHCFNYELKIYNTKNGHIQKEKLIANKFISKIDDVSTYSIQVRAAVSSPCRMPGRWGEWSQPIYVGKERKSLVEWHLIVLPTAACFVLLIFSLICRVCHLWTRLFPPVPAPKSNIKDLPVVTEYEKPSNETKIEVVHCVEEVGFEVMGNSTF

B1: rtDNP-1 hIgG1 (DF) antibody (KM8808) (antibody, V domains shown)
VH: EVQLQESGPGLVKPSQSLSLTCSVTGYSITSGYWNWIRKFPGNKMEWIGYISYSGSTYYNPSLKSRISITRDTSKNQFFLQLNSVTTEDTATYYCARWGVRHYFDYWGQGVMATVSS
VL: DVVMTQTPVSLPVSLGGQASISCRSSQSLANSYGNTYLSWYLQKPGQSPQLLIYRVSNTFSGVPDRFSGSGSGTDFTLKISRVEPEDLGDYYCLQGTHQPYTFGAGTKLELK
notes: Isotype control; Rat anti-DNP variable regions on a human IgG1 constant region, no core fucose; also called core fucose-deficient anti-dinitrophenol (DNP) rat/human chimeric antibody
B2: rtDNP-1 hIgG1 (N297A) antibody (KM6161) (antibody, V domains shown)
VH: B1 VH
VL: B1 VL
notes: Isotype control; Rat anti-DNP variable regions on a human IgG1 constant region with N297A; also called N-linked sugar chain-deficient anti-DNP rat/human chimeric antibody
B3: H7 hIgG1 (DF) (H7-1) (antibody, V domains shown)
VH: EVQLQQSGAELGKPGTSVKLSCKVSGYNIKNTYIHWVNQRPGKGLEWIGRIDPANGNPIYAEKFKNKATLTADTSSNTAYMQLSQLKSDDTAIYFCAMHRGHSMGPGPYVMDAWGQGASVTVSS
VL: DIQMTQSPASLSASLGETVTIECRTSEDIYNGLAWYQQKPGKSPQLLIYNANSLHTGVPSRFSGSGSGTQYSLKINSLQSEDVASYCCQQYSNYPFTFGSGTKLEIK
notes: also called core fucose-deficient H7 chimeric antibody; Potelligent-type H7 chimeric antibody
B4: H7 hIgG1 (N297A) (H7-3) (antibody, V domains shown)
VH: B3 VH
VL: B3 VL
notes: Rat H7 variable regions on a human IgG1 constant region with N297A (EU index), so it lacks the N-linked sugar chain; Human kappa light chain constant region; also called N-linked sugar chain-deficient H7 chimeric antibody
B5: H7 (CS) hIgG1 (N297A) (H7-4) (antibody, V domains shown)
VH: B3 VH
VL: B3 VL with C87S
notes: H7 VL with Cys 87 replaced by Ser. Human IgG1 constant region with N297A (EU index) and human kappa constant region; also called H7 (CS) altered form
B6: H7 (CS) hIgG1 (DF) (H7-2) (antibody, V domains shown)
VH: B3 VH
VL: B3 VL with C87S
notes: Human IgG1 and human kappa constant regions, no core fucose (FUT8-/- CHO); also called Cys substitution variant H7-2; H7 (CS) altered form

These binders were tested against T1, mouse IL-5Rα on Y16 cells (assay: flow cytometry on Y16 cells expressing mouse IL-5R, detection with goat F(ab')2 anti-human IgG PE, Geomean).
Method: The chimeric antibodies prepared in Example 8 were evaluated for their antigen binding activity using a mouse-derived cell line Y16 expressing IL-5R. The Y16 cells were washed with SM (staining medium containing 2% FCS, 0.05% NaN₃, and 1 mM EDTA in PBS). Then, Mouse BD Fc Block (manufactured by Becton, Dickinson and Company) was added thereto at a concentration of 5 μg/mL, and the mixture was left standing at 4° C. for 30 min. The cells were inoculated at a cell number of 1×10⁵ cells/well to a 96-well U-bottom plate, and each chimeric antibody adjusted to a final concentration of 10000, 2500, 625, 156, 39, 10, 2.4, or 0.6 ng/mL was added thereto, followed by reaction at 4° C. for 60 min. The rat/human chimeric control antibodies used were rtDNP-1 hIgG1 (DF) antibody (KM8808) and rtDNP-1 hIgG1 (N297A) antibody (KM6161). The nucleotide sequences and amino acid sequences of the variable regions of each isotype control antibody are shown in SEQ ID NOs: 29 to 34. After washing of the cells with SM, Goat F(ab′)₂ Anti-Human IgG PE (γ chain specific) (manufactured by Southern Biotech) diluted 500-fold with SM was added thereto, followed by reaction at 4° C. for 60 min. After washing of the cells with SM, the cells were resuspended in 50 μL of SM. Fluorescence intensity was measured by FCM (flow cytometer FACS Canto II (manufactured by Becton, Dickinson and Company)). The data was analyzed using FlowJo 7.65 (manufactured by Tomy Digital Biology Co., Ltd.) to calculate a Geomean value at each concentration.

Row | binding result | EC50 (read off the curve) [µg/mL] | Binder
1 | no binding (tested: 10 µg/mL) | – | B1
2 | no binding (tested: 10 µg/mL) | – | B2
3 | – | ~0.06 | B3
4 | – | ~0.06 | B4
5 | – | ~0.04 | B5
6 | – | ~0.04 | B6
